Source: PMC12582974, “Characterization of WAC interactions with R2TP and TTT chaperone complexes linking glucose and glutamine availability to mTORC1 activity” (FEBS Open Bio, 2025)

Columns and labels:
[1] = target: T1, RUVBL1-RUVBL2 complex (human, UniProt Q9Y265 1-456; Q9Y230 1-463); experiment: pull-down; WAC-3xFlag from Expi293 lysate purified and held on anti-Flag resin (washes incl. 5 mM ATP/5 mM MgCl2); purified prey added 20 min at 4 °C in 150 mM Tris pH 8, 300 mM KCl, 10% glycerol, 0.5 mM TCEP; elution with 3xFlag peptide; SDS/PAGE and western blot; settings: both partners purified
T1 construct: RUVBL1 (RuvB-like 1), human, N-terminal His-tag and TEV site; RUVBL2 (RuvB-like 2), human, untagged; also called RUVBL1‐RUVBL2 module; RUVBL1‐RUVBL2 ATPase module; source: E. coli BL21 (DE3), co-expressed, purified (HisTrap HP; an untagged form by TEV digestion and a second HisTrap step)

[2] = target: mTOR-mLST8 complex (10xHis-TEV-mTOR with untagged mLST8) (human, UniProt P42345 1-2549; Q9BVC4 1-326); experiment: as above; settings: both partners purified

T1 sequence (Q9Y265 whole entry, chain 1 of 2): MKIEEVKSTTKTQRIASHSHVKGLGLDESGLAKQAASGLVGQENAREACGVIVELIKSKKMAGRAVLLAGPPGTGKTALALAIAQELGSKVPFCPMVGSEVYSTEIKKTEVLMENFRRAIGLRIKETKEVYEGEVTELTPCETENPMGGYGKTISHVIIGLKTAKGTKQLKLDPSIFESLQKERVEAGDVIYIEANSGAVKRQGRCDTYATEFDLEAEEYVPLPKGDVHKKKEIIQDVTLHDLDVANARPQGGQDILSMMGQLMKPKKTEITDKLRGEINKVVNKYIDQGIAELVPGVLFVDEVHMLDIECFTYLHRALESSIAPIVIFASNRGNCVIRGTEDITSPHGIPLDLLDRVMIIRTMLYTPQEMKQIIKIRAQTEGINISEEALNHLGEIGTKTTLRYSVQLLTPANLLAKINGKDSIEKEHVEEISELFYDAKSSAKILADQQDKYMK
T1 sequence (Q9Y230 whole entry, chain 2 of 2): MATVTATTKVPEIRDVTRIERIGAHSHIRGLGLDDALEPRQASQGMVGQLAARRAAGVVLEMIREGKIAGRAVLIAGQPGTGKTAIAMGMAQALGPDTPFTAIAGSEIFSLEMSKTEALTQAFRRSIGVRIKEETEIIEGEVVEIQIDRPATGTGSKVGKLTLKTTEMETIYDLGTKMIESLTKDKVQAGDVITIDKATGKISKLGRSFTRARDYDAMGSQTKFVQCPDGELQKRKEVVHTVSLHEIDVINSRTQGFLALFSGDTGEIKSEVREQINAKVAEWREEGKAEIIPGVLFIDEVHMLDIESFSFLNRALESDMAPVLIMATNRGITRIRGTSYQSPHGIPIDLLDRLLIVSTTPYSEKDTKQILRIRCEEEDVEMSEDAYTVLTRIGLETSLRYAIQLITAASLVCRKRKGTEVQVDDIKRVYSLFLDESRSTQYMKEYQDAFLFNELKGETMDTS

B1: WAC-3xFlag (human WAC with C-terminal 3xFlag tag, pACEMam-WAC-3C-3xFlag) (natural protein, UniProt Q9BTA9-1 1-647, looked up)
chain: MVMYARKQQRLSDGCHDRRGDSQPYQALKYSSKSHPSSGDHRHEKMRDAGDPSPPNKMLRRSDSPENKYSDSTGHSKAKNVHTHRVRERDGGTSYSPQENSHNHSALHSSNSHSSNPSNNPSKTSDAPYDSADDWSEHISSSGKKYYYNCRTEVSQWEKPKEWLEREQRQKEANKMAVNSFPKDRDYRREVMQATATSGFASGMEDKHSSDASSLLPQNILSQTSRHNDRDYRLPRAETHSSSTPVQHPIKPVVHPTATPSTVPSSPFTLQSDHQPKKSFDANGASTLSKLPTPTSSVPAQKTERKESTSGDKPVSHSCTTPSTSSASGLNPTSAPPTSASAVPVSPVPQSPIPPLLQDPNLLRQLLPALQATLQLNNSNVDISKINEVLTAAVTQASLQSIIHKFLTAGPSAFNITSLISQAAQLSTQAQPSNQSPMSLTSDASSPRSYVSPRISTPQTNTVPIKPLISTPPVSSQPKVSTPVVKQGPVSQSATQQPVTADKQQGHEPVSPRSLQRSSSQRSPSPGPNHTSNSSNASNATVVPQNSSARSTCSLTPALAAHFSENLIKHVQGWPADHAEKQASRLREEAHNMGTIHMSEICTELKNLRSLVRVCEIQATLREQRILFLRQQIKELEKLKNQNSFMV
notes: WAC (WW domain-containing adaptor with coiled-coil), human, cDNA NM_016628.5 from GenScript (clone OHu28471); An HRV 3C protease site stands between WAC and the 3xFlag tag; also called WW domain-containing adaptor with coiled-coil; WAC lysate; source: Expi293 cells, overexpressed; purified on anti-Flag resin and kept on the beads; not shown: 3xFlag, C-terminal, kept
B1: binds [1]; binds [2].
